PMC10107836 (Chembiochem, 2022)
Values joined by “and” are separate entries in the source; they are usually repeats but may differ in a detail not shown here. Identical values can stand only once.

Target: extraviral domain of SARS-CoV-2 spike protein (aa 1-1213) (SARS-CoV-2) (UniProt P0DTC2)
Experiment: SPR

pineapple-derived jacalin-related lectin AcmJRL (natural protein)
Kd: 3.3 µM and 11.1 µM | koff: 0.0034 s⁻¹ | kon: 1060 M⁻¹ s⁻¹
